{"source": "paper PMC11901735", "about": "(Molecules, 2025)", "binders": {"B1": {"name": "Recombinant human GLP-1R protein (receptor)", "chain": "RPQGATVSLWETVQKWREYRRQCQRSLTEDPPPATDLFCNRTFDEYACWPDGEPGSFVNVSCPWYLPWASSVPQGHVYRFCTAEGLWLQKDNSSLPWRDLSECEESKRGERSSPEEQLLFLY", "modifications": "Limits are not printed. The Sino Biological H02H catalogue suffix suggests a soluble extracellular domain with a C-terminal human Fc (left out). Residues 24-145 are the usual ectodomain construct …"}}, "key": {"[1]": {"molecular_target": "Ex-4-C40, exendin-4 with an additional Cys at the C-terminus (UniProt P26349 48-87)", "assay": "SPR; Biacore T200; recombinant human GLP-1R (0.5 μM) immobilized on a CM5 sensor chip; peptides injected at four-fold serial dilutions (0, 0.1-100 nM); n = 3; 1:1 interaction model", "details": "both partners purified"}, "exendin-4": {"molecular_target": "exendin-4 (UniProt P26349 48-87)", "assay": "SPR; Biacore T200; recombinant human GLP-1R (0.5 μM) immobilized on a CM5 sensor chip; peptides injected at four-fold serial dilutions (0, 0.1-100 nM); n = 3; 1:1 interaction model", "details": "both partners purified"}}, "data": [{"binder": "B1", "values": [{"measurement": "Kd", "setting": "[1]", "result": 36, "unit": "nM"}, {"measurement": "Kd", "setting": "exendin-4", "result": 33.6, "unit": "nM"}]}]}
